Paper PMC3399532 (Prion, 2012)

Molecular target: MoPrP-Fc (mouse, UniProt P04925 23-230)
Assay: ELISA

Sequence of MoPrP-Fc (P04925 23-230): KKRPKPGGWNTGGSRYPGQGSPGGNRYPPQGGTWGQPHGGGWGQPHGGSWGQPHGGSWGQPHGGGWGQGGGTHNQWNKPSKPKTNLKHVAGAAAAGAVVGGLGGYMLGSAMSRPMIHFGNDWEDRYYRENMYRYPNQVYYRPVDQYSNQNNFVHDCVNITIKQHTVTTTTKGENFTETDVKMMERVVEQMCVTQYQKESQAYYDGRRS

B1: mouse (Mo) Dpl (26–155) (domain or fragment)
chain: ARGIKHRFKWNRKVLPSSGGQITEARVAENRPGAFIKQGRKLDIDFGAEGNRYYAANYWQFPDGIYYEGCSEANVTKEMLVTSCVNATQAANQAEFSREKQDSKLHQRVLWRLIKEICSAKHCDFWLERG
binding result: binds
